Positions count from the first letter of the chain named. Values belong to the binder of their own block, whether it stands above or below them.
Experiments:
[1] = target: T1, human EGFR on cells (A431, NCI-H292, NCI-H322, NCI-H441) (human, UniProt P00533 25-1210); experiment: cell-based or functional assay
[2] = target: T2, human c-Met on cells (NCI-H441, NCI-H292, U87-MG) (human, UniProt P08581 25-1390); experiment: cell-based or functional assay
[3] = target: T2, human c-Met on cells (NCI-H441, …); experiment: cell-based or functional assay; remark: listed apart in the source
[4] = target: T3, Recombinant human c-Met Fc chimera (human, UniProt P08581 16-932); experiment: competition with biotinylated HGF on plate-coated c-Met-Fc
T3 construct: whole c-Met entry named; also called c-Met-Fc fusion protein

[5] = target: T2, human c-Met on cells (NCI-H441, …); experiment: NCI-H441 cell binding, anti-His fluorescence
Experimental: Purified FN3 domains (50 μL/well; 0 to 1000 nM) were added to the cells for 1 hour at 4° C. in duplicate plates. Supernatant was removed and cells were washed three times with FACS stain buffer (150 μL/well, BD Biosciences, cat #554657). Cells were incubated with biotinylated-anti HIS antibody (diluted 1:160 in FACS stain buffer, 50 μL/well, R&D Systems, cat # BAM050) for 30 minutes at 4° C. Cells were washed three times with FACS stain buffer (150 μL/well), after which wells were incubated with anti mouse IgG1-Alexa 488 conjugated antibody (diluted 1:80 in FACS stain buffer, 50 μL/well, Life Technologies, cat # A21121) for 30 minutes at 4° C. Cells were washed three times with FACS stain buffer (150 μL/well) and left in FACS stain buffer (50 μL/well). Total fluorescence was determined using an Acumen eX3 reader. Data were plotted as raw fluorescence signal against the logarithm of the FN3 domain molar concentration and fitted to a sigmoidal dose-response curve with variable slope using GraphPad Prism 4 (GraphPad Software) to calculate EC₅₀ values.

[6] = target: T2, human c-Met on cells (NCI-H441, …); experiment: cell-based or functional assay; remark: listed apart in the source
[7] = target: T4, recombinant c-Met extracellular domain (human, UniProt P08581 16-932); experiment: SPR kinetic analysis as in Example 2
T4 construct: Construct used for SPR is not described further (may be the Fc chimera, as the protocol captures on anti-human Fc)

[8] = target: T1, human EGFR on cells (A431, NCI-H292, …); experiment: A431 cell competition with biotinylated EGF
Experimental: A431 cells were plated at 5,000/well in opaque black 96-well plates and allowed to attach overnight at 37° C., in a humidified 5% CO₂ atmosphere. […] Cells were washed 3 times with 150 μL/well of FACS stain buffer. Cells were incubated with 50 μL/well of streptavidin-phycoerythrin conjugate (Invitrogen) diluted 1:100 in FACS stain buffer for 20 minutes at room temperature. Cells were washed 3 times with 150 μL/well of FACS stain buffer, after which wells were filled with 100 μL of FACS stain buffer and read for fluorescence at 600 nm using an Acumen eX3 reader. Data were plotted as the raw fluorescence signal against the logarithm of FN3 domain molar concentration and fitted to a sigmoidal dose-response curve with variable slope using GraphPad Prism 4 (GraphPad Software) to calculate IC₅₀ values.

[9] = target: T5, recombinant human extracellular domain of EGFR fused to an IgG1 Fc (human, UniProt P00533 25-645); experiment: SPR (ProteOn), EGFR-Fc captured on anti-human Fc IgG
T5 construct: Bought (R&D Systems); captured on anti-human Fc IgG for SPR; also called EGFR-Fc
Experimental: Select EGFR-binding FN3 domains were screened to identify those with slow off-rates (koff) in binding to EGFR-Fc on a ProteOn XPR-36 instrument (Bio-Rad) to facilitate selection of high affinity binders. Goat anti-human Fc IgG (R&D systems), at a concentration of 5 μg/mL, was directly immobilized via amine coupling (at pH 5.0) on all 6 ligand channels in horizontal orientation on the chip with a flow rate of 30 μL/min in PBS containing 0.005% Tween-20. The immobilization densities averaged about 1500 Response Units (RU) with less than 5% variation among different channels. EGFR-Fc was captured on the anti-human Fc IgG surface to a density around 600 RU in vertical ligand orientation. All tested FN3 domains were normalized to a concentration of 1 μM and tested for their binding in horizontal orientation. All 6 analyte channels were used for the FN3 domains to maximize screening throughput. The dissociation phase was monitored for 10 minutes at a flow rate of 100 μL/min. The inter-spot binding signals were used as references to monitor non-specific binding between analytes and the immobilized IgG surface, and were subtracted from all binding responses. The processed binding data were locally fit to a 1:1 simple Langmuir binding model to extract the koff for each FN3 domain binding to captured EGFR-Fc.
Binding affinity of selected EGFR-binding FN3 domains to recombinant EGFR extracellular domain was further characterized by surface Plasmon resonance methods using a Proteon Instrument (BioRad). The assay set-up (chip preparation, EGFR-Fc capture) was similar to that described above for off-rate analysis. Selected EGFR binding FN3 domains were tested at 1 μM concentration in 3-fold dilution series in the horizontal orientation. A buffer sample was also injected to monitor the baseline stability.

[10] = target: T1, human EGFR on cells (A431, NCI-H292, …); experiment: cell-based or functional assay; remark: listed apart in the source
[11] = target: T1, human EGFR on cells (A431, NCI-H292, …); experiment: A431 cell binding, anti-His-Alexa488 fluorescence
Experimental: A431 cells were plated at 5,000/well in opaque black 96-well plates and allowed to attach overnight at 37° C., in a humidified 5% CO₂ atmosphere. […] Supernatant was removed and cells were washed 3 times with 150 μL/well of FACS stain buffer. Cells were incubated with 50 μL/well of anti-penta His-Alexa488 antibody conjugate (Qiagen) diluted 1:100 in FACS stain buffer for 20 minutes at room temperature. Cells were washed 3 times with 150 μL/well of FACS stain buffer, after which wells were filled with 100 μL of FACS stain buffer and read for fluorescence at 488 nm using an Acumen eX3 reader. Data were plotted as raw fluorescence signal against the logarithm of the FN3 domain molar concentration and fitted to a sigmoidal dose-response curve with variable slope using GraphPad Prism 4 (GraphPad Software) to calculate EC₅₀ values.

[12] = target: EGFR (form used in the assay not stated) (human, UniProt P00533 25-645, limits assumed); experiment: affinity quoted in text, assay not stated

IC50 of inhibition of EGF-stimulated EGFR phosphorylation, NCI-H292 cells [1]: 1.6 nM | IC50 of inhibition of HGF-stimulated c-Met phosphorylation, NCI-H292 cells [2]: 0.5 nM
B1: ECB147v3-PEG24 (designed binder)
chain: MLPAPKNLVVSEVTEDSARLSWDDPWAFYESFLIQYQESEKVGEAIVLTVPGSERSYDLTGLCPGTEYTVSIYGVHNVYKDTNMRGLPLSAIFTTAPCPAPAPAPLPAPKNLVVSRVTEDSARLSWTAPDAAFDSFWIRYFEFLGSGEAIVLTVPGSERSYDLTGLCPGTEYVVNIMSVKGGSISPPLSAIFTTAPCPAPAPAPLAEAKVLANRELDKYGVSDYYKNLINNAKTVEGVKALLDEILAALP
modifications: PEG24-maleimide on the engineered cysteines

IC50 of inhibition of EGF-stimulated EGFR phosphorylation, NCI-H292 cells [1]: 1.4 nM | IC50 of inhibition of HGF-stimulated c-Met phosphorylation, NCI-H292 cells [2]: 0.5 nM
B2: ECB147v7-PEG24 (designed binder)
chain: B1 chain with C63K, C167K
modifications: PEG24-maleimide on the engineered cysteines

IC50 of inhibition of EGF-stimulated EGFR phosphorylation, NCI-H292 cells [1]: 0.9 nM | IC50 of inhibition of HGF-stimulated c-Met phosphorylation, NCI-H292 cells [2]: 0.4 nM
B3: ECB147v5-PEG24 (designed binder)
chain: B1 chain with C98A, C197A
modifications: PEG24-maleimide on the engineered cysteines

IC50 of inhibition of EGF-stimulated EGFR phosphorylation, NCI-H292 cells [1]: 1.4 nM | IC50 of inhibition of HGF-stimulated c-Met phosphorylation, NCI-H292 cells [2]: 0.4 nM
B4: ECB147v6-PEG24 (designed binder)
chain: B1 chain with C98A, C167K, C197A
modifications: PEG24-maleimide on the engineered cysteine

IC50 of inhibition of c-Met phosphorylation, NCI-H292 cells [3]: 610 nM | IC50 [4]: 5.2 nM | EC50 [5]: 18.7 nM | Inhibition of proliferation of U87-MG cells IC50 [6]: 464 nM | pMet inhibition in H441 cells IC50 [6]: 1.08 µM | Kd [7]: 10.1 nM
B5: P114AR5P74-A5 (designed binder, not shown: small tags and cut ends)
chain: LPAPKNLVVSRVTEDSARLSWTAPDAAFDSFWIRYDEVVVGGEAIVLTVPGSERSYDLTGLKPGTEYYVNILGVKGGSISVPLSAIFTT

IC50 [8]: 55 nM | Kd [9]: 0.383 nM | NCI-H292 Growth IC50 [10]: 1150 nM | NCI-H322 Growth IC50 [10]: > 3070 nM | Phospho-EGFR IC50 (A431 cells) [10]: 179 nM
B6: P54CR4-31 (designed binder, not shown: small tags and cut ends)
chain: LPAPKNLVVSEVTEDSLRLSWTAPDAAFDSFLIQYQESEKVGEAINLTVPGSERSYDLTGLKPGTEYTVSIYGVLGSYVFEHDVMLPLSAEFTT

The next lines start with the binder.

B7: P53A1R5-17 (designed binder, not shown: small tags and cut ends)
chain: LPAPKNLVVSEVTEDSLRLSWADPHGFYDSFLIQYQESEKVGEAINLTVPGSERSYDLTGLKPGTEYTVSIYGVHNVYKDTNMRGLPLSAEFTT
IC50 [8]: 9.8 nM | EC50 [11]: 4 nM | Kd [9]: 1.89 nM | NCI-H292 Growth IC50 [10]: 86 nM | NCI-H322 Growth IC50 [10]: 65 nM | Phospho-EGFR IC50 (A431 cells) [10]: > 2500 nM

B8: P54AR4-48 (designed binder, not shown: small tags and cut ends)
chain: B7 chain with A22D, H25R, D29E
IC50 [8]: 9.8 nM | EC50 [11]: 12 nM | Kd [9]: 7.78 nM | Phospho-EGFR IC50 (A431 cells) [10]: 170 nM

B9: P54AR4-17 (designed binder, not shown: small tags and cut ends)
chain: B7 chain with A22T, D23Y, P24D, H25R, G26D, F27G
IC50 [8]: 21 nM | EC50 [11]: 16 nM | Kd [9]: 9.62 nM | Phospho-EGFR IC50 (A431 cells) [10]: 184 nM

B10: P54AR4-73 (designed binder, not shown: small tags and cut ends)
chain: B7 chain with A22T, D23W, H25Y, G26A, F27D, Y28L
notes: also called P54AR4-37
IC50 [8]: 4.6 nM | EC50 [11]: 9.4 nM | Kd [9]: 0.197 nM | NCI-H292 Growth IC50 [10]: 83 nM | NCI-H322 Growth IC50 [10]: 73 nM | Phospho-EGFR IC50 (A431 cells) [10]: 141 nM

B11: P53A1R5-17v2 (designed binder)
chain: B7 chain with L17A, N46V, E91I
Kd [12]: 1.9 nM

B12: P54AR4-83 (designed binder, not shown: small tags and cut ends)
chain: B7 chain with A22D, H25W, G26A, D29E
IC50 [8]: 1.8 nM | EC50 [11]: 2.2 nM | Kd [9]: 0.255 nM | NCI-H292 Growth IC50 [10]: 5.9 nM | NCI-H322 Growth IC50 [10]: 9.2 nM | Phospho-EGFR IC50 (A431 cells) [10]: 18 nM

Source: patent US20210301025A1 (published 2021)
